Test results: patent US11541126B1, “Anti-ASGR1 antibody TLR8 agonist comprising conjugates and uses thereof” (Silverback Therapeutics, Inc., priority 2020, dated 2023)
Numbering of substitutions follows the chain as printed. Names and notes keep the numbering of the source.

B1: hzG2D-33: humanized G2D clone; "G2D VL region ... of clones 1-16, 19-21, 26-29, 31, and 33 ... grafted into the human germline sequence VKI-L1 with JK4" (antibody, V domains shown)
VH: QVQLVQSGAEVKKPGASVKVSCKASGYTFTGYYMHWVRQAPGQRLEWMGRINPNNGATNYNQNFKDKASLTVDTSASTAYMELSSLTSEDTAVYYCTSVNFYYWGQGTTVTVSS
VL: DIQMTQSPSSLSASVGDRVTITCKASQVINSYLSWFQQKPGKAPKSLIYRANTLVDGVPSRFSGSGSGTDFTLTISSLQPEDFATYYCLQYAEFPYTFGGGTKVEIK
modifications: Synthetic sequence hzG2.51D VH R66K, V67A, T68S, I69L, R71V, R84T, A93T, R94S; Synthetic sequence hzG2D VLa
B2: hzG2D-34: humanized G2D clone; "G2D VL region ... of clones 22, 23, 30, 32, and 34-37 ... grafted into the human germline sequence VKI-O2 with JK4" (antibody, V domains shown)
VH: B1 VH
VL: B1 VL with F36Y, S46L
modifications: Synthetic sequence hzG2.51D VH R66K, V67A, T68S, I69L, R71V, R84T, A93T, R94S; Synthetic sequence hzG2D VLb
B3: hzG2D-2: humanized G2D clone; "G2D VL region ... of clones 1-16, 19-21, 26-29, 31, and 33 ... grafted into the human germline sequence VKI-L1 with JK4" (antibody, V domains shown)
VH: B1 VH with T28S, K67R, A68V, S69T, L70I, V72R, T87R, T97A, S98R, V110L
VL: B1 VL
modifications: Synthetic sequence hzG2.1D VH T28S, V109L; Synthetic sequence hzG2D VLa
B4: hzG2D-3: humanized G2D clone; "G2D VL region ... of clones 1-16, 19-21, 26-29, 31, and 33 ... grafted into the human germline sequence VKI-L1 with JK4" (antibody, V domains shown)
VH: B1 VH with K67R, A68V, S69T, L70I, V72R, T87R, V110L
VL: B1 VL
modifications: Synthetic sequence hzG2.45D VH A93T, R94S, V109L; Synthetic sequence hzG2D VLa
B5: hzG2D-4: humanized G2D clone; "G2D VL region ... of clones 1-16, 19-21, 26-29, 31, and 33 ... grafted into the human germline sequence VKI-L1 with JK4" (antibody, V domains shown)
VH: B1 VH with S69T, L70I, V72R, T87R, T97A, S98R, V110L
VL: B1 VL
modifications: Synthetic sequence hzG2.39D VH R66K, V67A, V109L; Synthetic sequence hzG2D VLa
B6: hzG2D-5: humanized G2D clone; "G2D VL region ... of clones 1-16, 19-21, 26-29, 31, and 33 ... grafted into the human germline sequence VKI-L1 with JK4" (antibody, V domains shown)
VH: B1 VH with T28S, K67R, A68V, S69T, L70I, V72R, T87R, V110L
VL: B1 VL
modifications: Synthetic sequence hzG2.8D VH T28S, A93T, R94S, V109L; Synthetic sequence hzG2D VLa
B7: hzG2D-6: humanized G2D clone; "G2D VL region ... of clones 1-16, 19-21, 26-29, 31, and 33 ... grafted into the human germline sequence VKI-L1 with JK4" (antibody, V domains shown)
VH: B1 VH with K67R, A68V, T87R, T97A, S98R, V110L
VL: B1 VL
modifications: Synthetic sequence hzG2.43D VH T68S, I69L, R71V, V109L; Synthetic sequence hzG2D VLa
B8: hzG2D-7: humanized G2D clone; "G2D VL region ... of clones 1-16, 19-21, 26-29, 31, and 33 ... grafted into the human germline sequence VKI-L1 with JK4" (antibody, V domains shown)
VH: B1 VH with T28S, S69T, L70I, V72R, T87R, T97A, S98R, V110L
VL: B1 VL
modifications: Synthetic sequence hzG2.2D VH T28S, R66K, V67A, V109L; Synthetic sequence hzG2D VLa
B9: hzG2D-8: humanized G2D clone; "G2D VL region ... of clones 1-16, 19-21, 26-29, 31, and 33 ... grafted into the human germline sequence VKI-L1 with JK4" (antibody, V domains shown)
VH: B1 VH with T28S, K67R, A68V, T87R, T97A, S98R, V110L
VL: B1 VL
modifications: Synthetic sequence hzG2.6D VH T28S, T68S, I69L, R71V, V109L; Synthetic sequence hzG2D VLa
B10: hzG2D-9: humanized G2D clone; "G2D VL region ... of clones 1-16, 19-21, 26-29, 31, and 33 ... grafted into the human germline sequence VKI-L1 with JK4" (antibody, V domains shown)
VH: B1 VH with S69T, L70I, V72R, T87R, V110L
VL: B1 VL
modifications: Synthetic sequence hzG2.40D VH R66K, V67A, A93T, R94S, V109L; Synthetic sequence hzG2D VLa
B11: hzG2D-10: humanized G2D clone; "G2D VL region ... of clones 1-16, 19-21, 26-29, 31, and 33 ... grafted into the human germline sequence VKI-L1 with JK4" (antibody, V domains shown)
VH: B1 VH with K67R, A68V, T87R, V110L
VL: B1 VL
modifications: Synthetic sequence hzG2.44D VH T68S, I69L, R71V, A93T, R94S, V109L; Synthetic sequence hzG2D VLa
B12: hzG2D-12: humanized G2D clone; "G2D VL region ... of clones 1-16, 19-21, 26-29, 31, and 33 ... grafted into the human germline sequence VKI-L1 with JK4" (antibody, V domains shown)
VH: B1 VH with T28S, S69T, L70I, V72R, T87R, V110L
VL: B1 VL
modifications: Synthetic sequence hzG2.3D VH T28S, R66K, V67A, A93T, R94S, V109L; Synthetic sequence hzG2D VLa
B13: hzG2D-13: humanized G2D clone; "G2D VL region ... of clones 1-16, 19-21, 26-29, 31, and 33 ... grafted into the human germline sequence VKI-L1 with JK4" (antibody, V domains shown)
VH: B1 VH with T28S, K67R, A68V, T87R, V110L
VL: B1 VL
modifications: Synthetic sequence hzG2.7D VH T28S, T68S, I69L, R71V, A93T, R94S, V109L; Synthetic sequence hzG2D VLa
B14: hzG2D-14: humanized G2D clone; "G2D VL region ... of clones 1-16, 19-21, 26-29, 31, and 33 ... grafted into the human germline sequence VKI-L1 with JK4" (antibody, V domains shown)
VH: B1 VH with T28S, T87R, T97A, S98R, V110L
VL: B1 VL
modifications: Synthetic sequence hzG2.4D VH T28S, R66K, V67A, T68S, I69L, R71V, V109L; Synthetic sequence hzG2D VLa
B15: hzG2D-15: humanized G2D clone; "G2D VL region ... of clones 1-16, 19-21, 26-29, 31, and 33 ... grafted into the human germline sequence VKI-L1 with JK4" (antibody, V domains shown)
VH: B1 VH with T87R, V110L
VL: B1 VL
modifications: Synthetic sequence hzG2.42D VH R66K, V67A, T68S, I69L, R71V, A93T, R94S, V109L; Synthetic sequence hzG2D VLa

Biological target: T1, HepG2 cells (which express ASGR1) (Homo sapiens, UniProt P07306)
T1 construct: endogenous in cells; host or cells: HepG2
T1 sequence (P07306 1-291): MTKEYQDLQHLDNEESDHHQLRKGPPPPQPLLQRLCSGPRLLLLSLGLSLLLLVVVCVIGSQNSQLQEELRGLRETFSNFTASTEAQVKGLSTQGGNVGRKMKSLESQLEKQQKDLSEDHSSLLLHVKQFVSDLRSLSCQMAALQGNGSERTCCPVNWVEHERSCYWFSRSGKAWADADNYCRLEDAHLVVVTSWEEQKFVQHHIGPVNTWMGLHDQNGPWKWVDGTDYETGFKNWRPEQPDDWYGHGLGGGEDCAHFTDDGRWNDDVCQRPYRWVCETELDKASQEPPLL
Assay: Guava HepG2 cell binding screen of humanized anti-ASGR1 clones
Design: unit not given here
Conditions: humanized G2D clones (Table 5); two numbers per cell, not explained
Description: Hybridomas producing monoclonal antibodies (mAbs) specific for human ASGR1 were prepared from Balb/C mice immunized with ASGR1-AviHis at a service provider using their propriety protocol. Antibody heavy and light chain sequences were obtained, amplified, and cloned. Clone supernatants containing the expressed mAbs were screened for binding to a human ASGR1-IgG1Fc fusion protein, and those with a positive signal as measured by enzyme linked immunosorbent assay (ELISA) were screened for cell binding on HepG2 cells (which express ASGR1).

For B1, which “Guava HepG2 Screen” value is on record?
The value was 164/85.

For B2, which “Guava HepG2 Screen” value is on record?
The value was 194/109.

How did the “Guava HepG2 Screen” value turn out when B3 was run?
Its value is 38/20.

With B4 as the molecule, how does the “Guava HepG2 Screen” value read?
The value was 131/95.

For B5, which “Guava HepG2 Screen” value is on record?
The value was 55/22.

B6 was tested. Which “Guava HepG2 Screen” value did it give?
The value was 91/55.

With B7 as the molecule, how does the “Guava HepG2 Screen” value read?
Its value is 39/23.

With B8 as the molecule, how does the “Guava HepG2 Screen” value read?
The value was 46/22.

B9 was tested. Which “Guava HepG2 Screen” value did it give?
Its value is 31/21.

Which “Guava HepG2 Screen” value does the source give for B10 here?
Its value is 155/117.

B11 was tested. Which “Guava HepG2 Screen” value did it give?
Its value is 149/63.

With B12 as the molecule, how does the “Guava HepG2 Screen” value read?
Its value is 158/113.

Which “Guava HepG2 Screen” value does the source give for B13 here?
The value was 140/83.

For B14, which “Guava HepG2 Screen” value is on record?
The value was 37/16.

Which “Guava HepG2 Screen” value does the source give for B15 here?
Its value is 172/119.
